The source of these data is PMC11574364.

The target in data set [1] is T1, QKI (recombinant His-QKI) (UniProt Q96PU8).
T1 sequence: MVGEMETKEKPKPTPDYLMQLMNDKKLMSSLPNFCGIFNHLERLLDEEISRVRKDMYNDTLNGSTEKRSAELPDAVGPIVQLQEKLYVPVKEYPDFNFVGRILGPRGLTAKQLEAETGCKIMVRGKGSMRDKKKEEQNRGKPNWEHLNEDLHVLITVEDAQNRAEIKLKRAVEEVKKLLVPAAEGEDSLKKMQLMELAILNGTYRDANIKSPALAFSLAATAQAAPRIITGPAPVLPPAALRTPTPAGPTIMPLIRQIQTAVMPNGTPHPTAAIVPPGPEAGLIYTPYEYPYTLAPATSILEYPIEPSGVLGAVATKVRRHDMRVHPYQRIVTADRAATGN
As to the kind of experiment: fluorescence polarization. The conditions noted are these: 2 mM Mg2+; FP: 20 mM HEPES pH 7.4, 150 mM NaCl, 2 mM MgCl2, 1 U/ul RiboLock, 10 mM DTT, 3 nM Cy3-RNA, 5 min, room temperature; domain array: 20 mM Tris-HCl pH 7.4, 200 mM ….

Data set [2] concerns the target T2, HIS-QKI (RNA-binding domain array) (human, UniProt Q96PU8 1-341).
T2 sequence: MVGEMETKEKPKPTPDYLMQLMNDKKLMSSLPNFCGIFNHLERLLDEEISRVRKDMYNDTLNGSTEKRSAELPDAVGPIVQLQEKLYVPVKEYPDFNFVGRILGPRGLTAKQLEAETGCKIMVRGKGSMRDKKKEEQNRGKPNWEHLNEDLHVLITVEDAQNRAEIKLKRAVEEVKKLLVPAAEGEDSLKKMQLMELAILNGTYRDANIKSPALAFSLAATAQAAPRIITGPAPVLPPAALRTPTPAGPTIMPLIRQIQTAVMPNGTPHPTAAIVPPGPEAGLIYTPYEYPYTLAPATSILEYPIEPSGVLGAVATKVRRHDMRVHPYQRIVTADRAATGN
Nature of the data set: protein microarray probed with biotinylated miRNA; Domain array: 20 mM Tris-HCl pH 7.4, 200 mM KCl, 0.2 mM EDTA, 0.05% NP40, 2 ug/ul heparin, overnight 4 C. ORF array: PBS pH 7.0 with RNase inhibitor, 100 ng RNA; high values mean tight binding.

The next data set concerns the target ZNF490 (human, UniProt Q9ULM2 1-529). Nature of the data set: protein microarray; FP: 20 mM HEPES pH 7.4, 150 mM NaCl, 2 mM MgCl2, 1 U/ul RiboLock, 10 mM DTT, 3 nM Cy3-RNA, 5 min, room temperature; domain array: 20 mM Tris-HCl pH 7.4, 200 mM.
In a further data set the target is T3, ISY1 (human, UniProt Q9ULR0 1-285).
T3 sequence: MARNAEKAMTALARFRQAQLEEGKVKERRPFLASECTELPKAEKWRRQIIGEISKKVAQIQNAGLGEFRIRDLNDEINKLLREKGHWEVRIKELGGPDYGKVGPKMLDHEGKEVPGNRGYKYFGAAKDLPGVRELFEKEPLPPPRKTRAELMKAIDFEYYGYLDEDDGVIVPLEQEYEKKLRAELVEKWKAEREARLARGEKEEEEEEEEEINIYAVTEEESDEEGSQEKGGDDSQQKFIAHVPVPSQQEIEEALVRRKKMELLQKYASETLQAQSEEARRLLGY
The description is as above.

A further data set deals with ZIC3 (human, UniProt O60481 1-467). The data set is described as above.
The next data set deals with T4, ARL10 (human, UniProt Q8N8L6 1-244).
T4 sequence: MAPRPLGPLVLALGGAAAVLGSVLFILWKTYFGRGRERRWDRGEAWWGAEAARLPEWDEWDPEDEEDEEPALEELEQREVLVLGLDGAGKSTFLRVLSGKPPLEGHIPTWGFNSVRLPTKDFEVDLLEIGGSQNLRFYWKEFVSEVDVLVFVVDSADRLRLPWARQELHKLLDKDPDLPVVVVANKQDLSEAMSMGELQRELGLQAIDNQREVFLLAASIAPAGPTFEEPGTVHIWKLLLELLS
The description is as above.

For another data set, the target named is T5, QKI (human ORF array) (human, UniProt Q96PU8 1-341).
T5 sequence: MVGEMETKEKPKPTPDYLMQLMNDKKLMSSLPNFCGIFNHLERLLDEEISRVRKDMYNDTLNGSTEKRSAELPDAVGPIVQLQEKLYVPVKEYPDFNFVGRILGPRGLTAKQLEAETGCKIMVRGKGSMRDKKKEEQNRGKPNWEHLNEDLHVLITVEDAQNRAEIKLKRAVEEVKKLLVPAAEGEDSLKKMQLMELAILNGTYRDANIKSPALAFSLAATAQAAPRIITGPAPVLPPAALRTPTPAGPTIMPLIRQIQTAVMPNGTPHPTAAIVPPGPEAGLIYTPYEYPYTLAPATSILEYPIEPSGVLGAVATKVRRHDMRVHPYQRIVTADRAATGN
The data set is described as above.

The target in the next data set is T6, ZNF597 (human, UniProt Q96LX8 1-424).
T6 sequence: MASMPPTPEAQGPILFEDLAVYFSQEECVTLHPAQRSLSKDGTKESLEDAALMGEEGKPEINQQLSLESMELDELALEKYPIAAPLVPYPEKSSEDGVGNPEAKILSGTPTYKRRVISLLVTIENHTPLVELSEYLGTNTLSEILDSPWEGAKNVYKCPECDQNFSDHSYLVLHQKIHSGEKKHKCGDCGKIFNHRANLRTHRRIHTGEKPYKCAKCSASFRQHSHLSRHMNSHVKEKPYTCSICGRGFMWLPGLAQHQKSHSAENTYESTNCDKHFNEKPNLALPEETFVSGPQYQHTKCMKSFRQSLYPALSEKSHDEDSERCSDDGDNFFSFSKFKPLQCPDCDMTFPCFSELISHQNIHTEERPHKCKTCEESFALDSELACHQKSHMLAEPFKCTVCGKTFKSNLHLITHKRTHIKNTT
The data set is described as above.

ZNF490, sequence (Q9ULM2 whole entry): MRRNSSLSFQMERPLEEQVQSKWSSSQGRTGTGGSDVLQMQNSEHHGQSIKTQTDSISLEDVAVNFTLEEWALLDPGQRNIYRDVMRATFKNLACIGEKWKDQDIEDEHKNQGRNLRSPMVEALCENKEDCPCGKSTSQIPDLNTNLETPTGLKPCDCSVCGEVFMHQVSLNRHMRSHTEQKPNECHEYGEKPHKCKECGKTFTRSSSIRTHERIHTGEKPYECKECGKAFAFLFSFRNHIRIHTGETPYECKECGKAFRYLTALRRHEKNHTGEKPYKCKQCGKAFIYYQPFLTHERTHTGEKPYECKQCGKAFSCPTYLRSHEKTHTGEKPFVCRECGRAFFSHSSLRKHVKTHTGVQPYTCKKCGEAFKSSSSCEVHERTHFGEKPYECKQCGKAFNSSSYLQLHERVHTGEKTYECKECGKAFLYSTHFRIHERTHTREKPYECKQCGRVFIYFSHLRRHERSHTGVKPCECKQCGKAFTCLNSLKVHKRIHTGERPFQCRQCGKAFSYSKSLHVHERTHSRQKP
ZIC3, sequence (O60481 whole entry): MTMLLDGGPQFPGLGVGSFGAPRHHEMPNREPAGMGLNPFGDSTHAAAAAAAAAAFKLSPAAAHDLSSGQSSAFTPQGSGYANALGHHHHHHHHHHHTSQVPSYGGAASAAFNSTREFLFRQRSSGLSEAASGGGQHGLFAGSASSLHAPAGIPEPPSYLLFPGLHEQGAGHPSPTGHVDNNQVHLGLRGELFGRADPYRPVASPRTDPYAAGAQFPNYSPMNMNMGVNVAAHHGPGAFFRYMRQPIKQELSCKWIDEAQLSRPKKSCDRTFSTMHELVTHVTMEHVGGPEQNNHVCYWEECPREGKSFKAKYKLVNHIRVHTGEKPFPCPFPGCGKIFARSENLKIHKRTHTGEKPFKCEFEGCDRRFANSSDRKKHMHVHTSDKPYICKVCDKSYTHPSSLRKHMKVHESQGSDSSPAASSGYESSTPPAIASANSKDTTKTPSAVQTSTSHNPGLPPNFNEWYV

Turning to CAGUGCAAUGAUGAAAGGGCAU [miR-130b-Cy3], in data set [1], the dissociation constant (Kd) came to 7.03 nM.
The same measure, in the same setting: for UAGCUUAUCAGACUGAUGUUGA [miR-21-Cy3] the value was 48.5 nM.
Still for that read-out and setting: for UGAGGUAGUAGGUUGUGUGGUU [let-7b-Cy3] the value was 8.07 nM.
CAGUGCAAUGAUGAAAGGGCAU (ssRNA) [miR-130b biotin/Cy3] had a binding signal in data set [2] of 428 ± 18.2 fluorescence intensity.
Still for that read-out and setting: the figure for UAGCUUAUCAGACUGAUGUUGA (ssRNA) [miR-21 biotin/Cy3] is 26.4 ± 0.354 fluorescence intensity.
In the case of UGAGGUAGUAGGUUGUAUGGUU (ssRNA) [let-7c biotin/Cy3], the binding signal in data set [2] was found to be 1280 ± 235 fluorescence intensity.
On the same count and under the same terms, the figure for UGAGGUAGUAGGUUGUAUAGUU (ssRNA) [let-7a biotin/Cy3] is 336 ± 27.5 fluorescence intensity.
For the molecule UGAGGUAGUAGGUUGUGUGGUU (ssRNA, 5' phosphate; amino-C6 U at position 18) [let-7b (internal labeling)], the binding result in the data set with ZNF490, with ISY1, with ZIC3, with ARL10, with QKI (human ORF array) and in the data set with ZNF597 was “binds” each time.
AGAGGUAGUAGGUUGCAUAGUU (ssRNA) [let-7d biotin/Cy3] gave a binding signal in data set [2] of 1210 ± 167 fluorescence intensity.
Still for that read-out and setting: for UGAGGUAGUAGGUUGUGUGGUU (ssRNA) [let-7b biotin/Cy3] the value was 1340 ± 56.7 fluorescence intensity.
For CAGUGCAAUGAUGAAAGGGCAU (ssRNA) [miR-130b (internal labeling)], the binding result in the data set with ZNF490, with ISY1, in the data set with ZIC3, with ARL10 and with ZNF597 was “binds” in each case.
Turning to UAGCUUAUCAGACUGAUGUUGA (ssRNA) [miR-21 (internal labeling)], the binding result with ZNF490, in the data set with ISY1, in the data set with ZIC3, with ARL10 and with ZNF597 was “binds” in each case.
